One substance from article PMC2490753 can be followed below.

This assay deals with YacG (E. coli) (UniProt P0A8H8). Nature of the assay: SPR.
Sequence of UniProt P0A8H8 (P0A8H8 whole entry): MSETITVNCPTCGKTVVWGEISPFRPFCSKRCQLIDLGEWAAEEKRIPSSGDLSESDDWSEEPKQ

For “GyrB subunit of E. coli DNA gyrase (from UniProt P0AES6 1-804) (natural protein)”, the response above nonspecific control at 1 uM GyrB came to 92 RU.
